Paper PMC12449476, “Transient ligand contacts of the intrinsically disordered N-terminus of neuropeptide Y2 receptor regulate arrestin-3 recruitment” (Nature Communications, 2025)
Several values for one entry are separate records, joined by “and”; a condition that tells them apart may be missing. Identical values can stand only once. Blank lines part the entries; values can stand above or below the substance they belong to.

How the values were obtained:
[1] = target: Δ2–41 variant or charge reversal in the acidic patches (Nluc-Y2R-eYFP variants, ligand dissociation); assay: FRET or BRET; NanoBRET ligand dissociation from the low-affinity state: membranes pre-incubated with 300 nM K18-Tamra-NPY for 10 min, re-binding blocked by 50 µM JNJ-31020028, BRET decay for 20 min, one-phase dissociation fit
[2] = target: Nluc-Y2R-eYFP D42A-S43A-T44A (human) (UniProt P49146); assay: FRET or BRET; NanoBRET equilibrium binding: dilution series of K18-Tamra-NPY on HEK293 membranes with Nluc-Y2R-eYFP variants, HBSS, 20 mM HEPES pH 7.4, 0.1% BSA, 10 min at room temperature; unspecific binding with 100 µM JNJ-31020028; biphasic fit (high- and low-affinity state)
[3] = target: Nluc-Y2R-eYFP Δ2–41 (human) (UniProt P49146); assay: as above
[4] = target: Y2R-eYFP D35–E39K (human) (UniProt P49146); assay: FRET or BRET; BRET between Nluc-arrestin-3 and Y2R-eYFP variants in live HEK293 cells, concentration-response to NPY, read 10 min after stimulation at 37 °C
[5] = target: Tetramethylrhodamine-NPY (Tamra-NPY) (porcine); assay: fluorescence polarisation; fixed 50 nM Tamra-NPY, titrated with Y2R-loaded bicelles (x axis: log c, bicelles / M); empty bicelles as control
[6] = target: Neuropeptide Y (Homo sapiens) (UniProt P01303); settings: cited from earlier work

Neuropeptide Y receptor type 2, sequence (P49146 whole entry): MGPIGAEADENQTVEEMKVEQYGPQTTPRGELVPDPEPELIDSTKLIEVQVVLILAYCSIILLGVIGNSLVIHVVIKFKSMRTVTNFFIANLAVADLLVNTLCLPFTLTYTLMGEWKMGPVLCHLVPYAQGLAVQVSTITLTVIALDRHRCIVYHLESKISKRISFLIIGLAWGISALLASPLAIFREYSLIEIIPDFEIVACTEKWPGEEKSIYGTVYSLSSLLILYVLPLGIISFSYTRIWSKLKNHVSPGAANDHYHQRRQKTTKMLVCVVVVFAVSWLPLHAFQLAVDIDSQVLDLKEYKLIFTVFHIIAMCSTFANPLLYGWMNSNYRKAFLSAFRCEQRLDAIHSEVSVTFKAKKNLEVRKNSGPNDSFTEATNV
lipid-reconstituted cysteine-deficient Y2R (Y2R-Δ6), sequence (P49146 whole entry, stated change not applied): as the sequence (P49146 whole entry) above
Y2R-eYFP D35–E39K (human), sequence (P49146 whole entry E39K): as the sequence (P49146 whole entry) above, with E39K counted along it
Nluc-Y2R-eYFP D42A-S43A-T44A (human), sequence (P49146 whole entry D42A/S43A/T44A): as the sequence (P49146 whole entry) above, with D42A, S43A, T44A counted along it
Nluc-Y2R-eYFP Δ2–41 (human), sequence (P49146 other isoform, or with tags, fused parts or gaps): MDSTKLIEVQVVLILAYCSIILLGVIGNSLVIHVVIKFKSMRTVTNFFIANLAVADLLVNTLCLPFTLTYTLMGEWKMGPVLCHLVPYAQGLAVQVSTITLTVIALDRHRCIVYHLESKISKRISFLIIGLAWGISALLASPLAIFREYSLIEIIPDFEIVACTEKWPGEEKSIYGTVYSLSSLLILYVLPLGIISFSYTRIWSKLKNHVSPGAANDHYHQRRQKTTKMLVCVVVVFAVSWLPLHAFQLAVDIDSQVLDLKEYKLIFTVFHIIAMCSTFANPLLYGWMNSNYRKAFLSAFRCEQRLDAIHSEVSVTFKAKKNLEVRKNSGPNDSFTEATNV

fold increase of ligand dissociation (koff) against wild-type Y2R [1]: 2 fold and 3 fold
fold reduction of the affinity of the low-affinity state against wild-type Y2R [2]: 3 fold
fold reduction of the low-affinity binding constant against wild-type Y2R [3]: 2 fold
Substance: K18-Tamra-NPY (peptide)

BRETmax [4]: 49%
Substance: Nluc-arrestin-3 (from UniProt P32121 1-409) (natural protein)

Kd [5]: 44.5 nM
Substance: lipid-reconstituted cysteine-deficient Y2R (Y2R-Δ6) (from UniProt P49146 1-381) (receptor)

Substance: Neuropeptide Y receptor type 2 (from UniProt P49146)
Kd [6]: 300 nM
